This test addresses geCHO.sE2.7 (secreted HCV E2 ectodomain produced in glycoengineered CHO line 7) (hepatitis C virus, genotype 1a (H77C)). Put plainly: ELISA.

In turn, “CD81 large extracellular loop (LEL)-Fc fusion” registered an OD at 450 nm at the highest concentration of CD81-LEL-Fc (2.8 μM) of 0.4 OD.

(Values after paper PMC12159149.)
